The results in this text go back to article PMC10413684, “A bacterial tungsten-containing aldehyde oxidoreductase forms an enzymatic decorated protein nanowire” (Science Advances, 2023).

Values joined by “and” are separate entries in the source; they are usually repeats but may differ in a detail not shown here. Identical values can stand only once.

The chains are these.
T1: AORAa (Aor(AB)nC complex; FAD-containing subunit AorC) (Aromatoleum aromaticum, UniProt Q5P142)
T1 construct: same complex as P1, site in AorC; N-terminal twin-Strep-tag on AorA; expressed in Aromatoleum evansii; modelled Aor(AB)2C; with Aldehyde oxidoreductase, polyferredoxin-like iron-sulfur subunit AorA; Aldehyde oxidoreductase, tungsten-containing catalytic subunit AorB (aldehyde:ferredoxin oxidoreductase)
T1 sequence (Q5P142 1-424): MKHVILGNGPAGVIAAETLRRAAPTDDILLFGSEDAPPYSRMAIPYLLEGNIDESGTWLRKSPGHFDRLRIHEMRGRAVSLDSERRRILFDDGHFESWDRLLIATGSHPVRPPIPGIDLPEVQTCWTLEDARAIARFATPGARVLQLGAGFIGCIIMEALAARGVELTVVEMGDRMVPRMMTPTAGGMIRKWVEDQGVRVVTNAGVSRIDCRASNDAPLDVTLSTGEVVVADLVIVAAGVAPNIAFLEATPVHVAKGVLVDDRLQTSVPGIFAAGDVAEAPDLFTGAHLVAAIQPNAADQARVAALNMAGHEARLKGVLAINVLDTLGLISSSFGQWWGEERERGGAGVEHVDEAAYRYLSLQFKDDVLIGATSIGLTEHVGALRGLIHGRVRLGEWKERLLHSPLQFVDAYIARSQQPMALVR
T1 sequence (Q5P144 1-158 partner): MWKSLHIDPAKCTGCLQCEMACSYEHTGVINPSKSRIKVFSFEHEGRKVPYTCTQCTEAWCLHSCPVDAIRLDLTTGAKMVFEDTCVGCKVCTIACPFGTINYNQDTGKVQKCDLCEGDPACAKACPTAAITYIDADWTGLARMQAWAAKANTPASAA
T1 sequence (Q5P143 1-616 partner): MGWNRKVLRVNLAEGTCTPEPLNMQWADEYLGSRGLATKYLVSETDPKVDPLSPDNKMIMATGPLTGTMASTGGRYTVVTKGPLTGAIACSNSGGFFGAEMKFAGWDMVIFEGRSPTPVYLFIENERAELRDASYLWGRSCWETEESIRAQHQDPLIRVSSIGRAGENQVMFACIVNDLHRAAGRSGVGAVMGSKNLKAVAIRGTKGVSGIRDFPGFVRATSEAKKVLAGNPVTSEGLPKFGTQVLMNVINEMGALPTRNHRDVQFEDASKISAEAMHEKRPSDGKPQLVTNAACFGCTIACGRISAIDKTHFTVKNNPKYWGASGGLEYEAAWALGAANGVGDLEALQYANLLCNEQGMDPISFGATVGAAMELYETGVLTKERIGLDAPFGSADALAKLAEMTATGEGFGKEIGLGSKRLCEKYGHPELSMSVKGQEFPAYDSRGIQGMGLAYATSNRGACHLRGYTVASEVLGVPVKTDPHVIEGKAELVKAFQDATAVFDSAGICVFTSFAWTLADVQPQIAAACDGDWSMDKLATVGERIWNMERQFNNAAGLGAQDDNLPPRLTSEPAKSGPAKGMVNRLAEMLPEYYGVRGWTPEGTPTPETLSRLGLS

T2: AorA of the variant Δhelix-AOR, lacking the AorA residues from 138 to the C terminus (Aromatoleum aromaticum (strain DSM …, UniProt Q5P144))
T2 chain: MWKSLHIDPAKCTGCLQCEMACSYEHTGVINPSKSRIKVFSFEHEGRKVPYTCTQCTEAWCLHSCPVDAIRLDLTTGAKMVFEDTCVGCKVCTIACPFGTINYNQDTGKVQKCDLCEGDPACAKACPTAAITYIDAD

T3: AorB, catalytic tungsten-cofactor-containing subunit of the aldehyde oxidoreductase from Aromatoleum … (Aromatoleum aromaticum, UniProt Q5P143 1-616)
T3 construct: AorB of Aromatoleum aromaticum; benzoate seen in the active site; also called catalytic subunit; source: Aromatoleum evansii, heterologous expression of the AOR plasmid; Superdex 200 gel filtration for the wild-type complex, not for Δhelix-AOR
T3 sequence: T1 sequence (Q5P143 1-616 partner)

B1: AorC, FAD-containing NAD-binding subunit of the aldehyde oxidoreductase from Aromatoleum aromaticum (AORAa) (natural protein)
chain: T1 sequence (Q5P142 1-424)
notes: AorC of Aromatoleum aromaticum, Rossmann fold with an extended C-terminal domain of three α helices; A single copy per Aor(AB)nC complex; also called FAD-containing subunit; source: Aromatoleum evansii, heterologous expression of the AOR plasmid; Superdex 200 gel filtration for the wild-type complex, not for Δhelix-AOR
B2: AorB, catalytic tungsten-cofactor-containing subunit of the aldehyde oxidoreductase from Aromatoleum aromaticum (AORAa) (protein)
chain: T1 sequence (Q5P143 1-616 partner)
B3: AorA, polyferredoxin-like small subunit of the aldehyde oxidoreductase from Aromatoleum aromaticum (AORAa) (natural protein)
chain: T1 sequence (Q5P144 1-158 partner)
notes: Two to four copies per Aor(AB)nC complex; Carries four Fe4S4 clusters; also called small subunit AorA; electron transfer subunit; source: Aromatoleum evansii, heterologous expression of the AOR plasmid

The target in data set [1] is T1, AORAa (Aor(AB)nC complex; FAD-containing subunit AorC). Kind of data set: cryo-EM structure, […] A. Type of data set: binding. The settings on record: bound in AorC; Arg41 and Glu294 (Gln294 in figure legend).
The target of data set [2] is T4, AORAa (Aor(AB)nC complex; FAD-containing subunit AorC) (Aromatoleum aromaticum, UniProt Q5P142).
T4 construct: same complex as P1, site in AorC; N-terminal twin-Strep-tag on AorA; expressed in Aromatoleum evansii; modelled Aor(AB)2C; with Aldehyde oxidoreductase, polyferredoxin-like iron-sulfur subunit AorA; Aldehyde oxidoreductase, tungsten-containing catalytic subunit AorB (aldehyde:ferredoxin oxidoreductase)
Kind of data set: spectrophotometric specific activity. Type of data set: biochemical. The settings on record: hydrogen as electron donor; deletion-helix AOR.
T4 sequence (Q5P144 entry or part of it DEL138-156, one chain of several, further chain): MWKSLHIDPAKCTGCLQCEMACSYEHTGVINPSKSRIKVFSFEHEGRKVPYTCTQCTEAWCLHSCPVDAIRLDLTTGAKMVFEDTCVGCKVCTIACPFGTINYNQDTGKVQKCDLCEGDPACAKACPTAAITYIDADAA

Data set [3] addresses T2, AorA of the variant Δhelix-AOR, lacking …. Kind of data set: mass photometry of co-purified complex; seen only within the AorABC complex, with AorB present.
Data set [4] has as its target T3, AorB, catalytic …. Kind of data set: cryo-EM structure; purified AORAa complex, 0.7 mg/ml, 50 mM Hepes pH 7.5, glycerol below 2%; native and BS3 cross-linked samples prepared; 3.22 Å map of an Aor(AB)3C complex, model of Aor(AB)2C. To be noted: both partners purified.
The target in data set [5] is T2, AorA of the variant Δhelix-AOR, lacking …. As to the kind of experiment: mass photometry of co-purified complex.
Data set [6] deals with the molecule itself. As to the kind of experiment: mass photometry; OneMP mass photometer, 10 mM tris pH 8.0, 100 mM KCl, 0.1 mM EDTA, room temperature, sample diluted 10-fold just before measurement; 50 nM in Fig. 2D, E.
Data set [7] addresses B1. As to the kind of experiment: cryo-EM structure; purified AORAa complex, 0.7 mg/ml, 50 mM Hepes pH 7.5, glycerol below 2%; native and BS3 cross-linked samples prepared; 3.22 Å map of an Aor(AB)3C complex, model of Aor(AB)2C. To be noted: both partners purified.

Take `Cc1cc2nc3c(=O)[nH]c(=O)nc-3n(C[C@H](O)[C@H](O)[C@H](O)COP(=O)(O)OP(=O)(O)OC[C@H]3O[C@@H](n4cnc5c(N)ncnc54)[C@H](O)[C@@H]3O)c2cc1C` [FAD]: the “cryo-EM structure, 3.22 A” value in data set [1] is on record as “The FAD cofactor was well resolved in the electron density”. As for `NC(=O)c1ccc[n+]([C@@H]2O[C@H](COP(=O)(O)OP(=O)(O)OC[C@H]3O[C@@H](n4cnc5c(N)ncnc54)[C@H](O)[C@@H]3O)[C@@H](O)[C@H]2O)c1` [NAD^+], the specific activity entry in data set [2] is recorded as “NAD^+ reduction with hydrogen as an electron donor”. As to B1, the binding result in data set [3] and in data set [4] was “binds” in each case. For B2, the binding result in data set [5] was “binds”. Turning to B3, the “stoichiometry N” value in data set [6] was 2 and 3 and 4. Further, the binding result in data set [4] and in data set [7] was “binds” throughout.
